First the molecules themselves.
B1: Flag-MUC1-CD(1-68) (other)
chain: CQCRRKNYGQLDIFPARDTYHPMSEYPTYHTHGRYVPPSSTDRSPYEKVSAGNGGSSLSYTNPAVAAT
notes: also called pIRESpuro2-Flag-MUC1-CD(1-68); truncated MUC1 cytoplasmic domain; not shown: Flag tag
B2: YGRKKRRQRRRSRTVREIWA (SEQ ID NO: 150) (peptide)
peptide: YGRKKRRQRRRSRTVREIWA
modifications: also: biotinylated (position not given here)
notes: TAT plus 9 residues; also called AVC#1834
B3: YGRKKRRQRRRSRTDRLEYV (SEQ ID NO: 162) (peptide)
peptide: YGRKKRRQRRRSRTDRLEYV
modifications: also: biotinylated (position not given here)
notes: TAT plus 9 residues; also called AVC#1846
B4: YGRKKRRQRRRAVAATYSNL (SEQ ID NO: 139) (peptide)
peptide: YGRKKRRQRRRAVAATYSNL
modifications: also: biotinylated, position not given here
notes: TAT plus 9 residues; also called AVC#1793
B5: YGRKKRRQRRRAVAATSINL (SEQ ID NO: 138) (peptide)
peptide: YGRKKRRQRRRAVAATSINL
modifications: also: biotinylated, position not given here
notes: TAT plus 9 residues; also called AVC#1791; AVC 1791
B6: YGRKKRRQRRRQDERRLIVL (SEQ ID NO: 158) (peptide)
peptide: YGRKKRRQRRRQDERRLIVL
modifications: also: biotinylated (position not given here)
notes: TAT plus 9 residues; also called AVC#1842
B7: YGRKKRRQRRRARGTRLVWV (SEQ ID NO: 160) (peptide)
peptide: YGRKKRRQRRRARGTRLVWV
modifications: also: biotinylated, position not given here
notes: TAT plus 9 residues; also called AVC#1844
B8: YGRKKRRQRRRSRTDRKYWA (SEQ ID NO: 148) (peptide)
peptide: YGRKKRRQRRRSRTDRKYWA
modifications: also: biotinylated (position not given here)
notes: TAT plus 9 residues; also called AVC#1832
B9: YGRKKRRQRRRSRTDRKYQI (SEQ ID NO: 155) (peptide)
peptide: YGRKKRRQRRRSRTDRKYQI
modifications: also: biotinylated (position not given here)
notes: TAT plus 9 residues; also called AVC#1839
B10: YGRKKRRQRRRARGDRLVSL (SEQ ID NO: 159) (peptide)
peptide: YGRKKRRQRRRARGDRLVSL
modifications: also: biotinylated, position not given here
notes: TAT plus 9 residues; also called AVC#1843
B11: YGRKKRRQRRRAVAATGIWA (SEQ ID NO: 143) (peptide)
peptide: YGRKKRRQRRRAVAATGIWA
modifications: also: biotinylated, position not given here
notes: TAT plus 9 residues; also called AVC#1827
B12: YGRKKRRQRRRARGDRKRIV (SEQ ID NO: 136) (peptide)
peptide: YGRKKRRQRRRARGDRKRIV
modifications: also: biotinylated, position not given here
notes: also called AVC#1796; AVC 1796
B13: YGRKKRRQRRRARSDRTIIA (SEQ ID NO: 146) (peptide)
peptide: YGRKKRRQRRRARSDRTIIA
modifications: also: biotinylated, position not given here
notes: TAT plus 9 residues; also called AVC#1830
B14: YGRKKRRQRRRARSDRGIWA (SEQ ID NO: 142) (peptide)
peptide: YGRKKRRQRRRARSDRGIWA
modifications: also: biotinylated, position not given here
notes: TAT plus 9 residues; also called AVC#1823
B15: YGRKKRRQRRRARGDRKVPV (SEQ ID NO: 157) (peptide)
peptide: YGRKKRRQRRRARGDRKVPV
modifications: also: biotinylated, position not given here
notes: TAT plus 9 residues; also called AVC#1841
B16: YGRKKRRQRRRARGDRYRIV (SEQ ID NO: 161) (peptide)
peptide: YGRKKRRQRRRARGDRYRIV
modifications: also: biotinylated, position not given here
notes: TAT plus 9 residues; also called AVC#1845
B17: YGRKKRRQRRRARGDRLEIV (SEQ ID NO: 163) (peptide)
peptide: YGRKKRRQRRRARGDRLEIV
modifications: also: biotinylated, position not given here
notes: TAT plus 9 residues; also called AVC#1847
B18: YGRKKRRQRRRARSDRKRIV (SEQ ID NO: 167) (peptide)
peptide: YGRKKRRQRRRARSDRKRIV
modifications: also: biotinylated, position not given here
notes: TAT plus 9 residues; also called AVC#1851
B19: YGRKKRRQRRRARGDRKYIV (SEQ ID NO: 154) (peptide)
peptide: YGRKKRRQRRRARGDRKYIV
modifications: also: biotinylated, position not given here
notes: TAT plus 9 residues; also called AVC#1838
B20: YGRKKRRQRRRARTDRKVEV (SEQ ID NO: 153) (peptide)
peptide: YGRKKRRQRRRARTDRKVEV
modifications: also: biotinylated, position not given here
notes: TAT plus 9 residues; also called AVC#1837
B21: YGRKKRRQRRRARGDRKKIV (SEQ ID NO: 166) (peptide)
peptide: YGRKKRRQRRRARGDRKKIV
modifications: also: biotinylated, position not given here
notes: TAT plus 9 residues; also called AVC#1850
B22: YGRKKRRQRRRARGDRKIRV (SEQ ID NO: 152) (peptide)
peptide: YGRKKRRQRRRARGDRKIRV
modifications: also: biotinylated, position not given here
notes: TAT plus 9 residues; also called AVC#1836
B23: YGRKKRRQRRRARGDRKRWL (SEQ ID NO: 141) (peptide)
peptide: YGRKKRRQRRRARGDRKRWL
modifications: also: biotinylated, position not given here
notes: TAT plus 9 residues; also called AVC#1822
B24: YGRKKRRQRRRARGDRKRWA (SEQ ID NO: 140) (peptide)
peptide: YGRKKRRQRRRARGDRKRWA
modifications: also: biotinylated, position not given here
notes: TAT plus 9 residues; also called AVC#1821
B25: YGRKKRRQRRRARGDRRRIV (SEQ ID NO: 165) (peptide)
peptide: YGRKKRRQRRRARGDRRRIV
modifications: also: biotinylated, position not given here
notes: TAT plus 9 residues; also called AVC#1849
B26: YGRKKRRQRRRARSDRKRIA (SEQ ID NO: 147) (peptide)
peptide: YGRKKRRQRRRARSDRKRIA
modifications: also: biotinylated, position not given here
notes: TAT plus 9 residues; also called AVC#1831
B27: YGRKKRRQRRRARGDRTIIY (SEQ ID NO: 164) (peptide)
peptide: YGRKKRRQRRRARGDRTIIY
modifications: also: biotinylated, position not given here
notes: TAT plus 9 residues; also called AVC#1848
B28: YGRKKRRQRRRARSDRTIWA (SEQ ID NO: 145) (peptide)
peptide: YGRKKRRQRRRARSDRTIWA
modifications: also: biotinylated, position not given here
notes: TAT plus 9 residues; also called AVC#1829
B29: YGRKKRRQRRRQDERVETRV (SEQ ID NO: 171) (peptide)
peptide: YGRKKRRQRRRQDERVETRV
modifications: also: biotinylated (position not given here)
notes: TAT plus 9 residues; also called AVC#1855
B30: YGRKKRRQRRRQDEEEGIWA (SEQ ID NO: 137) (peptide)
peptide: YGRKKRRQRRRQDEEEGIWA
modifications: also: biotinylated, position not given here
notes: also called AVC#1790; AVC 1790
B31: YGRKKRRQRRRQDEEEGIWS (SEQ ID NO: 149) (peptide)
peptide: YGRKKRRQRRRQDEEEGIWS
modifications: also: biotinylated, position not given here
notes: TAT plus 9 residues; also called AVC#1833
B32: YGRKKRRQRRRQDEEETIWA (SEQ ID NO: 144) (peptide)
peptide: YGRKKRRQRRRQDEEETIWA
modifications: also: biotinylated (position not given here)
notes: TAT plus 9 residues; also called AVC#1828
B33: YGRKKRRQRRRLQRRRETQV (AVC#1856) (peptide)
peptide: YGRKKRRQRRRLQRRRETQV
modifications: also: biotinylated, position not given here
notes: TAT plus 9 residues
B34: YGRKKRRQRRRGMTSSSSVV (SEQ ID NO: 169) (peptide)
peptide: YGRKKRRQRRRGMTSSSSVV
modifications: also: biotinylated, position not given here
notes: TAT plus 9 residues; also called AVC#1853
B35: YGRKKRRQRRRSVTSTSINL (SEQ ID NO: 151) (peptide)
peptide: YGRKKRRQRRRSVTSTSINL
modifications: also: biotinylated (position not given here)
notes: TAT plus 9 residues; also called AVC#1835
B36: YGRKKRRQRRRARGDVRLML (SEQ ID NO: 156) (peptide)
peptide: YGRKKRRQRRRARGDVRLML
modifications: also: biotinylated, position not given here
notes: TAT plus 9 residues; also called AVC#1840
B37: YGRKKRRQRRRKNKDKEYYV (SEQ ID NO: 168) (peptide)
peptide: YGRKKRRQRRRKNKDKEYYV
modifications: also: biotinylated, position not given here
notes: TAT plus 9 residues; also called AVC#1852
B38: MUC1 C-terminus peptide NGGSSLSYTNPAVAATSANL (SEQ ID NO: 96) (peptide)
peptide: NGGSSLSYTNPAVAATSANL
modifications: also: biotinylated, position not given here
notes: also called C-terminus of MUC1; MUC1 peptide
B39: YGRKKRRQRRRAVAAASANL (SEQ ID NO: 135) (peptide)
peptide: YGRKKRRQRRRAVAAASANL
modifications: also: biotinylated, position not given here

Where no end group is shown, it is not given here. A value given as a limit tells only on which side of the number the result lay.

FGFR3, sequence (P22607 23-806 limits assumed): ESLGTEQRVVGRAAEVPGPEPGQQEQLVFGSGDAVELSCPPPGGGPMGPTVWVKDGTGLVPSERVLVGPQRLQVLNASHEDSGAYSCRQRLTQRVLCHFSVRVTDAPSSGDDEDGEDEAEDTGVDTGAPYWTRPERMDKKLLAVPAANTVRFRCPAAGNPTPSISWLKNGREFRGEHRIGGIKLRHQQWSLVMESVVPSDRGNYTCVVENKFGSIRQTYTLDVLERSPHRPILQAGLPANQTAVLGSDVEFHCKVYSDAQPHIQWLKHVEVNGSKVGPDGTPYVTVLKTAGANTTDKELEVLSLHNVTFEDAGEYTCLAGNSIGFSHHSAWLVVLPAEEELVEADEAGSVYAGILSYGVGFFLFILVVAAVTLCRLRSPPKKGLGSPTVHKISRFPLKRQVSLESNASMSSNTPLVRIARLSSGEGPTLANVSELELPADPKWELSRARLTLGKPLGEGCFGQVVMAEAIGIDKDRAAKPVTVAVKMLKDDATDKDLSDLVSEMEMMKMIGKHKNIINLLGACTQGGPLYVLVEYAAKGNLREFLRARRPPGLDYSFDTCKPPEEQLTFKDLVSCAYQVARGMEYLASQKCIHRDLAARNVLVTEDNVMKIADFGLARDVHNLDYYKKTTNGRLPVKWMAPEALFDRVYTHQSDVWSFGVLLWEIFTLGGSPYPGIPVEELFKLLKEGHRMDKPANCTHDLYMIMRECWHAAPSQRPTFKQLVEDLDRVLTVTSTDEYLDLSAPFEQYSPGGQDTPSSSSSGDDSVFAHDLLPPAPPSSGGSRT
GST-LIM Mystique PDZ domain 1 (human), sequence (chain, as listed by the source limits assumed): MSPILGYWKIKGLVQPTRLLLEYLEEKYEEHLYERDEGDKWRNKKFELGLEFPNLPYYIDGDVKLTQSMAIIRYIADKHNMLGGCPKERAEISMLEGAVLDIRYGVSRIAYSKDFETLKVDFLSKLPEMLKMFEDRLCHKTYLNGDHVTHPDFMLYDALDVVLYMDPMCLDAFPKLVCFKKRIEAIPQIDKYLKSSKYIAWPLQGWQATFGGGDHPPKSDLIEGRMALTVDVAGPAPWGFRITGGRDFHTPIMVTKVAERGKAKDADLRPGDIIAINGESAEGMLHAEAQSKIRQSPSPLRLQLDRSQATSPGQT

One experiment addresses T1, EGFR (UniProt P00533 25-1210).
T1 construct: also called HER1
Description: immunoprecipitation with anti-EGFR from lysates of transfected 293 cells, anti-MUC1-CD immunoblot.
Description: Lysates were subjected to immunoprecipitation with anti-EGFR or IgG as a control.
Equal amounts of cell lysate were incubated with anti-EGFR (Santa Cruz Biotechnology, Santa Cruz, Calif.) or mouse IgG. […] Reactivity was detected with a horseradish peroxidase-conjugated second antibody and chemiluminescence.
Take B1: the binding result is “no binding”.

The target in a further experiment is T2, GST-RIM2 (KIAA0751) PDZ domain 1 (human).
T2 construct: Construct RIM2, PDZ domain 1-pGEX-3X; vector sites BamH1/EcoR1, insert sites BglII/MfeI; also called GST-RIM2 PDZ domain; RIM3 (as printed once)
T2 sequence (chain, as listed by the source): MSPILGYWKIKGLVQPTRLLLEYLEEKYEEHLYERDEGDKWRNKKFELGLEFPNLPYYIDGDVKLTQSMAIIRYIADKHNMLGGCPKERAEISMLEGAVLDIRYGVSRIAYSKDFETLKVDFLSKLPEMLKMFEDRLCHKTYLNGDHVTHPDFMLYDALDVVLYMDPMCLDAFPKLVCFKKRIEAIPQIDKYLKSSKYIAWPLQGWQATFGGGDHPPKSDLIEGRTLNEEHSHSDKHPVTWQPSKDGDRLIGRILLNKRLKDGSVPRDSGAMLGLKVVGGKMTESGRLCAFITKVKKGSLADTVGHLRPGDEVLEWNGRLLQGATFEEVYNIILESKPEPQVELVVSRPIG
The experiment in a line: modified ELISA, plated GST-RIM2 PDZ domain, biotinylated peptide 0.001-10 µM, curve fit; Relative EC50.
Molecule B2 gave an EC50 of less than 10 nM.
B3 displayed an EC50 of 10 nM.
In turn, B4 showed a 50% effective concentration (EC50) of 600 nM.
On to B5, for which the EC50 stood at 40 nM. This EC50 lies about 15-fold lower than the previous one.
Molecule B6 showed an EC50 of 78 nM.
Consider B7, for which the EC50 was less than 10 nM.
In turn, B8 came in with an EC50 of less than 10 nM.
Same read-out and setting: with B9 the figure was 22 nM; with B10, 68 nM.
B11 gave an EC50 of less than 10 nM.
B12 registered an EC50 of 20 nM.
As to B13, the EC50 came to 13 nM.
B14 came in with an EC50 of less than 10 nM.
Molecule B15 showed an EC50 of 45 nM.
For B16, the EC50 was found to be 38 nM.
On to B17, for which the EC50 was 132 nM.
On the same count and under the same terms, with B18 the figure was 47 nM; with B19, 13 nM.
The same measure, in the same setting: the value for B20 was 40 nM.
On the same count and under the same terms, with B21 the figure was 47 nM.
In turn, B22 showed an EC50 of 10 nM. Against the preceding molecule, the EC50 is about 4.7-fold lower.
The molecule B23 registered an EC50 of 8 nM.
The molecule B24 yielded an EC50 of 7 nM.
On to B25, for which the EC50 was 37 nM.
The same measure, in the same setting: the value for B26 was 45 nM.
Molecule B27 yielded an EC50 of 30 nM.
On the same count and under the same terms, with B28 the figure was less than 10 nM; with B29, 880 nM; with B30, 5 nM.
Same read-out and setting: the value for B31 was 50 nM.
As for B32, a half-maximal effect (EC50) was put at 240 nM.
On the same count and under the same terms, the value for B33 was 33 nM.
Take B34: a half-maximal response (EC50) required 135 nM.
B35 came in with a half-maximal effective concentration (EC50) of 90 nM.
B36 displayed an EC50 of roughly 30 nM.
The molecule B37 showed a 50% effective concentration (EC50) of 13 nM. That is a double-digit nanomolar value.

Another experiment concerns the target GST-LIM Mystique PDZ domain 1 (human). The experiment in a line: modified ELISA, GST-PDZ captured by anti-GST, biotinylated MUC1 peptide titrated, HRP-streptavidin.
Description: Titrations to determine relative EC₅₀ values: Peptide corresponding to MUC1 was then titrated against a constant amount of the PDZ domain-containing recombinant proteins identified in the first part of this example.
In turn, B38 showed an EC50 of 10 nM.

In a further experiment the target is T3, GST-ZO-1 PDZ domain 2 (human).
T3 construct: also called ZO-1 d2; ZO1 d2
T3 sequence (chain, as listed by the source): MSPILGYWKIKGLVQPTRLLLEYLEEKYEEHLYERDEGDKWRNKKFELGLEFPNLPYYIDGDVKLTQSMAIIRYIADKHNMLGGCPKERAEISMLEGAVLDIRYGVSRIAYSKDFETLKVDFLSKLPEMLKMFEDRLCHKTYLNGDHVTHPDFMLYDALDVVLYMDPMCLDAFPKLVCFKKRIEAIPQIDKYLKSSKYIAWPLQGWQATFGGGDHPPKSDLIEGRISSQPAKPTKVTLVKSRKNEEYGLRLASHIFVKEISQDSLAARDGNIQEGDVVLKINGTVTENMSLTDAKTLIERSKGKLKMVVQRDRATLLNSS
Description: modified ELISA, GST-PDZ captured by anti-GST, biotinylated peptide titrated.
With B5, the response was half-maximal at 8 nM (EC50).
The molecule B12 had an EC50 of 20 nM.
Same read-out and setting: the value for B30 was 50 nM.

A further experiment has as its target T2, GST-RIM2 (KIAA0751) PDZ domain 1. Described as above.
In turn, B5 yielded an EC50 of 40 nM.
Turning to B12, the EC50 stood at 20 nM.
In turn, B30 registered an EC50 of 5 nM.

The target is the same in the next experiment. Description: modified ELISA, peptide titration.
Turning to B39, the binding result is reported as “binds”.

The next experiment has as its target FGFR3 (UniProt P22607 23-806, limits assumed). Description: immunoprecipitation with anti-FGFR3 from lysates of transfected 293 cells, anti-MUC1-CD immunoblot.
Description: Lysates were subjected to immunoprecipitation with anti-FGFR3 or IgG as a control.
Equal amounts of cell lysate were incubated with anti-FGFR3 or mouse IgG. […] Reactivity was detected with a horseradish peroxidase-conjugated second antibody and chemiluminescence.
As for B1, the binding result was “no binding”.

The record behind these values is US20080090770A1 (published 2008).
